{
  "source": "patent US20210130452A1",
  "key": {"[1]": {"molecular_target": "T1, marmoset IL-17F (marmoset) (UniProt A6N6I9)", "T1 sequence (looked up)": "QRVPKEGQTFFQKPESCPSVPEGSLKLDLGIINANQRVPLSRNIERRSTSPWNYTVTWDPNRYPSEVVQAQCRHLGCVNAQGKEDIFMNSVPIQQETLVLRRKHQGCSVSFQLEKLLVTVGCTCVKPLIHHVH", "assay": "ELISA, coated IL-17F"}, "[2]": {"molecular_target": "human serum albumin (human) (UniProt P02768)", "assay": "SPR (Biacore), HSA"}, "[3]": {"molecular_target": "T2, human IL-17F (human) (UniProt Q96PD4)", "T2 sequence": "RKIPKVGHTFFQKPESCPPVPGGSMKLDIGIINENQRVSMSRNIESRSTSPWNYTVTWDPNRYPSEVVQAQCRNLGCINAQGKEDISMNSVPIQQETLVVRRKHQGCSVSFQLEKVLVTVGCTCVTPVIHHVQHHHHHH", "assay": "AlphaScreen IL17F-RC"}, "[4]": {"molecular_target": "human IL-17A (human) (UniProt Q16552)", "sequence (Q16552 other isoform, or with tags, fused parts or gaps)": "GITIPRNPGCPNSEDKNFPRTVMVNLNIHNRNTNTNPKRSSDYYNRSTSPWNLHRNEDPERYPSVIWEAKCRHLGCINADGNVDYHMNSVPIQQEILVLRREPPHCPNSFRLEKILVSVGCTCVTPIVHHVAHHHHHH", "assay": "AlphaScreen IL17A-RA"}, "[5]": {"molecular_target": "human IL-17A/F heterodimer (human) (UniProt Q16552)", "sequence (Q16552 24-155 limits assumed, one chain of several)": "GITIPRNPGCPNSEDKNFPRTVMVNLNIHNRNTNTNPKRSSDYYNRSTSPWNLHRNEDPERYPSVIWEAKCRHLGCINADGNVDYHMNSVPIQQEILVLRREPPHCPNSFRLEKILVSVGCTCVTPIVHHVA", "assay": "AlphaScreen IL17A/F-RC"}, "[6]": {"molecular_target": "human IL-17A (human) (UniProt Q16552)", "assay": "AlphaScreen IL17A-RA + HSA"}, "[7]": {"molecular_target": "T2, human IL-17F (human)", "assay": "AlphaScreen IL17F-RC + HSA"}, "[8]": {"molecular_target": "human IL-17A/F heterodimer (human) (UniProt Q16552)", "assay": "AlphaScreen IL17A/F-RA"}, "[9]": {"molecular_target": "human IL-17A/F heterodimer (human) (UniProt Q16552)", "assay": "AlphaScreen IL17A/F-RA + HSA"}, "[10]": {"molecular_target": "human IL-17A/F heterodimer (human) (UniProt Q16552)", "assay": "cell-based or functional assay"}, "[11]": {"molecular_target": "T2, human IL-17F (human)", "assay": "cell-based or functional assay"}, "[12]": {"molecular_target": "human IL-17A (human) (UniProt Q16552)", "assay": "cell-based or functional assay"}, "[13]": {"molecular_target": "human IL-17A (human) (UniProt Q16552)", "assay": "AlphaScreen IL17A-RC"}, "[14]": {"molecular_target": "T2, human IL-17F (human)", "assay": "AlphaScreen IL17F-RA"}, "[15]": {"molecular_target": "T3, Cynomolgus monkey IL-17F (Cynomolgus monkey) (UniProt G7P4V0)", "T3 sequence": "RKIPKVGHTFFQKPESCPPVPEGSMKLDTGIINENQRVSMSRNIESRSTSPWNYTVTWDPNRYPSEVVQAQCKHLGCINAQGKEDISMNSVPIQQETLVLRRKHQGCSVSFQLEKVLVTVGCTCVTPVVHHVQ", "assay": "cell-based or functional assay"}, "[16]": {"molecular_target": "Cynomolgus monkey IL-17A (Cynomolgus monkey)", "sequence (chain, as listed by the source)": "as the sequence (Q16552 24-155 limits assumed, one chain of several) above, with T3A, P8S, N34S, I77V, N78K, P104R counted along it", "assay": "cell-based or functional assay"}, "[17]": {"molecular_target": "marmoset IL-17A (marmoset)", "sequence (chain, as listed by the source limits assumed)": "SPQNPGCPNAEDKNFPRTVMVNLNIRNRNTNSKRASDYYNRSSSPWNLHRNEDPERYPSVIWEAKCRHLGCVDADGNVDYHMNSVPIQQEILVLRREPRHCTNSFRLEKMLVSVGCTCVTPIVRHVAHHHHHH", "assay": "ELISA, coated IL-17A"}},
  "data": [
    {"binder": "17C01 (VHH) VHH: EVQLVESGGRLVQAGGSLRLPCAASGRTFTSYPMGWFRQAPGKEREFVAAISMSGDDAAYADFVRGRFTISRDDARNTVYLHMTSLKPEDTAVYYCAARTSYDGTYDYIDDYSYWGQGTQVTVSS", "values": [
      {"measurement": "OD", "setting": "[1]", "result": 0.0525, "unit": "OD"}
    ]},
    {"binder": "IL17MS0110 (bispecific antibody, part only; not given: linkers and anti-albumin Nanobody, not shown: small tags and cut ends) chain, part: EVQLVESGGGLVQAGGSQRLSCTASGTIVNIHVMGWYRQAPGKQRELVALIFSGGSADYADSVKGRFTISRDNAKNTVYLEMNSLKAEDTAVYYCAAEIGYYSGGTYYSSEAHWGQGTQVTVSSEVQLVESGGGLVQAGGSLRLSCAASGRTFSSYVVGWFRQAPGKEREFIGAISGSGDSIYYAVSEKDRFTISRDNGKNTLYLQMSSLKAEDTAVYYCTADQEFGYLRFGRSEYWGQGTQVTVSS", "values": [
      {"measurement": "koff", "setting": "[2]", "result": 0.0061, "unit": "s⁻¹"},
      {"measurement": "IC50", "setting": "[3]", "result": 0.048, "unit": "nM"},
      {"measurement": "IC50", "setting": "[4]", "result": 0.045, "unit": "nM"}
    ]},
    {"binder": "IL17MS0166 (bispecific antibody, part only; not given: linkers and anti-albumin Nanobody, not shown: small tags and cut ends) chain, part: EVQLVESGGGLVQAGGSLRLSCGAAGGTFSSYATGWFRQAPGKEREFVAVFRWSDSHTAYADSVKGRFTISRDGAKNTLYLQMSSLKPEDTAIYYCTTATRPGEWDYWGQGTQVTVSSEVQLVESGGGLVQAGGSQRLSCTASGTIVNIHVMGWYRQAPGKQRELVALIFSGGSADYADSVKGRFTISRDNAKNTVYLEMNSLKAEDTAVYYCAAEIGYYSGGTYYSSEAHWGQGTQVTVSS", "values": [
      {"measurement": "koff", "setting": "[2]", "result": 0.0059, "unit": "s⁻¹"},
      {"measurement": "IC50", "setting": "[5]", "result": 0.051, "unit": "nM"},
      {"measurement": "IC50", "setting": "[6]", "result": 0.203, "unit": "nM"},
      {"measurement": "IC50", "setting": "[7]", "result": 0.056, "unit": "nM"},
      {"measurement": "IC50", "setting": "[8]", "result": 0.128, "unit": "nM"},
      {"measurement": "IC50", "setting": "[9]", "result": 0.095, "unit": "nM"},
      {"measurement": "Emax, hIL-17A/F induced IL-6, HT-1080, 100 µM HSA", "setting": "[10]", "result": 72, "unit": "%"},
      {"measurement": "IC50, hIL-17A/F induced IL-6, HT-1080, 100 µM HSA", "setting": "[10]", "result": 1.47, "unit": "nM"},
      {"measurement": "Emax, hIL-17F induced IL-6, HT-1080, 100 µM HSA", "setting": "[11]", "result": 85, "unit": "%"},
      {"measurement": "Emax, hIL-17F induced IL-6, HT-1080, without HSA", "setting": "[11]", "result": 102, "unit": "%"},
      {"measurement": "IC50, hIL-17F induced IL-6, HT-1080, 100 µM HSA", "setting": "[11]", "result": 8.5, "unit": "nM"},
      {"measurement": "IC50, hIL-17F induced IL-6, HT-1080, without HSA", "setting": "[11]", "result": 7.35, "unit": "nM"},
      {"measurement": "Emax, hIL-17A induced IL-6, HT-1080, 100 µM HSA", "setting": "[12]", "result": 98, "unit": "%"},
      {"measurement": "Emax, hIL-17A induced IL-6, HT-1080, without HSA", "setting": "[12]", "result": 105, "unit": "%"},
      {"measurement": "IC50, hIL-17A induced IL-6, HT-1080, 100 µM HSA", "setting": "[12]", "result": 1.95, "unit": "nM"},
      {"measurement": "IC50, hIL-17A induced IL-6, HT-1080, without HSA", "setting": "[12]", "result": 0.83, "unit": "nM"},
      {"measurement": "IC50", "setting": "[3]", "result": 0.046, "unit": "nM"},
      {"measurement": "IC50", "setting": "[13]", "result": 0.367, "unit": "nM"},
      {"measurement": "IC50", "setting": "[14]", "result": 1.09, "unit": "nM"},
      {"measurement": "IC50", "setting": "[4]", "result": 0.161, "unit": "nM"}
    ]},
    {"binder": "SH-Fc-(GS)2-13B03 (Fc fusion, not shown: a dimerising Fc or GST; small tags and cut ends) EVQLVESGGGSVQAGDSLRLSCAASGRANSINWFGWFRQTPGKEREFVAGIRWSDAYTEYANSVKGRFTISRDNAKNTVDLQMDSLKPEDTAVYYCVLDLSTVRYWGQGTQVTVSS", "values": [
      {"measurement": "Emax, Cyno IL17F, HT-1080 bioassay", "setting": "[15]", "result": 103, "unit": "%"},
      {"measurement": "IC50, Cyno IL17F, HT-1080 bioassay", "setting": "[15]", "result": 5, "unit": "nM"},
      {"measurement": "Emax, Cyno IL17A, HT-1080 bioassay", "setting": "[16]", "result": 98, "unit": "%"},
      {"measurement": "IC50, Cyno IL17A, HT-1080 bioassay", "setting": "[16]", "result": 0.37, "unit": "nM"}
    ]},
    {"binder": "SH-Fc-(GS)2-13E02 (Fc fusion, not shown: a dimerising Fc or GST; small tags and cut ends) EVQLVESGGGLVQAGGSLRLSCAASGRTYDAMGWLRQAPGKEREFVAAISGSGDDTYYADSVKGRFTISKDNAGITMYLQMNSLKPEDTAVYYCATRRGLYYVWDSNDYENWGQGTQVTVSS", "values": [
      {"measurement": "Emax, Cyno IL17F, HT-1080 bioassay", "setting": "[15]", "result": 87, "unit": "%"},
      {"measurement": "IC50, Cyno IL17F, HT-1080 bioassay", "setting": "[15]", "result": 8.3, "unit": "nM"},
      {"measurement": "Emax, Cyno IL17A, HT-1080 bioassay", "setting": "[16]", "result": 100, "unit": "%"},
      {"measurement": "IC50, Cyno IL17A, HT-1080 bioassay", "setting": "[16]", "result": 0.29, "unit": "nM"}
    ]},
    {"binder": "IL17MS0154 (bispecific antibody, part only; not given: linkers and anti-albumin Nanobody, not shown: small tags and cut ends) chain, part: EVQLVESGGGLVQAGGSLRLSCAASGRTFSSYVVGWFRQAPGKEREFIGAISGSGDSIYYAVSEKDRFTISRDNGKNTLYLQMSSLKAEDTAVYYCTADQEFGYLRFGRSEYWGQGTQVTVSSEVQLVESGGGLVQAGGSQRLSCTASGTIVNIHVMGWYRQAPGKQRELVALIFSGGSADYADSVKGRFTISRDNAKNTVYLEMNSLKAEDTAVYYCAAEIGYYSGGTYYSSEAHWGQGTQVTVSS", "values": [
      {"measurement": "koff", "setting": "[2]", "result": 0.0057, "unit": "s⁻¹"},
      {"measurement": "IC50", "setting": "[3]", "result": 0.047, "unit": "nM"},
      {"measurement": "IC50", "setting": "[4]", "result": 0.056, "unit": "nM"}
    ]},
    {"binder": "24G10 (VHH) VHH: EVQLVESGGGLVQAGGSLRLSCGAAGGTFSSYATGWFRQAPGKEREFVAVFRWSDSHTAYADSVKGRFTISRDGAKNTLYLQMSSLKPEDTAIYYCTTATRPGEWDYWGQGTQVTVSS", "values": [
      {"measurement": "OD", "setting": "[17]", "result": 0.122, "unit": "OD"}
    ]},
    {"binder": "07B11 (VHH) VHH: EVQLVESGGGLVQAGGSLRLSCVASGRAFSSYVMGWFRQAPGMEREFVALIRWSDGITGYVDSVKGRFTISRDNAKNTVYLQMNSLKPEDTAVYYCAAAVRPGDYDYWGQGTQVTVSS", "values": [
      {"measurement": "OD", "setting": "[17]", "result": 0.186, "unit": "OD"}
    ]}
  ]
}
